Assay results published in patent publication US20240053325A1, “NOVEL SCREENING PLATFORM TO IDENTIFY IMMUNE MODULATORY AGENTS” (PRESIDENT AND FELLOWS OF HARVARD COLLEGE, priority 2020, published 2024).

Columns and labels:
[1] = target: T1, IL-10R (Mus musculus, UniProt Q61190+Q61727, C4S); experiment: IL-10 reporter; assay type: cell-based; settings: incubated for 24 hours with different amounts
T1 construct: expressed in transfected cells
Description: (§1) IL-10/IFN-γ/TNF-α reporters were incubated for 24 hours with different amounts of IL-10 (FIGS. 5A and 5B), IFN-γ (FIGS. 5C and 5D) or TNF-α (FIGS. 5E and 5F).
(§2) Furthermore, the systems and methods provided herein are applied to generate other cytokine/cytokine receptor reporter system (tTA fused onto one receptor subunit via a protease cleavage site, TEV fused to another receptor subunit, optimal linkers inserted between different proteins to ensure high signal-to-background ratio). The screening platform provided herein are used to identify immune modulatory agents including, but not limited to, small molecules and proteins that modulate cytokine signaling (FIGS. 5A-6F).

[2] = target: IL-17RA/RC reporter (IL-17RA-tTA and IL-17RC-TEV co-expressed in reporter cells) (Mus musculus); experiment: cell-based or functional assay
[3] = target: T2, IL-17RA/RC (Mus musculus, UniProt Q60943+Q8K4C2); experiment: IL-17RA/RC reporter assay (GFP reporter cells); assay type: cell-based; settings: reporter cells incubated with different amounts for 24 hours
T2 construct: expressed in transfected cells

[4] = target: T3, IL-17RA/RC (Mus musculus, UniProt Q60943+Q8K4C2, F156E); experiment: IL-17RA/RC reporter assay (GFP reporter cells); assay type: cell-based; settings: 24 h stimulation, IL-17A-F 100 ng/ml; for increase of percentage of GFP+ cells / GFP expression (reporter response): TNFa 5 ng/ml
T3 construct: expressed in transfected cells

[5] = target: IL-17RA/RB reporter (IL-17RA-tTA and IL-17RB-TEV co-expressed in reporter cells) (Mus musculus); experiment: cell-based or functional assay
[6] = target: T4, IL-17RA/RB (Mus musculus, UniProt Q60943+Q9JIP3); experiment: IL-17RA/RB reporter assay (GFP reporter cells); assay type: cell-based; settings: 24 h stimulation, IL-17A-F 100 ng/ml; for increase of percentage of GFP+ cells / GFP expression (reporter response): TNFa 5 ng/ml
T4 construct: expressed in transfected cells
Description: Doxycycline was used as a negative regulator of the GFP reporter. IL-17A-F: 100 ng/ml, TNFa: 5 ng/ml, doxycycline: 1 μg/ml.
Using a similar approach, the inventors have recently also successfully generated the IL-17RA/IL-17RB reporter line (FIG. 4). […] Since IL-17E plays a role in allergy and asthma, small molecules modulators that will be identified using this platform may create a new IP opportunity.

[7] = target: T5, TNFαR1 (Homo sapiens, UniProt P19438); experiment: TNF-α reporter; assay type: cell-based; settings: incubated for 24 hours with different amounts
T5 construct: expressed in transfected cells
Description: as §1, §2

[8] = target: T6, IFNγR (Mus musculus, UniProt P15261+Q63953); experiment: IFN-γ reporter; assay type: cell-based; settings: incubated for 24 hours with different amounts
T6 construct: expressed in transfected cells
Description: as §1, §2

## IL-10: cytokine, used to activate the IL-10 reporter
[1]
  dose dependent activation of reporter: dose dependent activation

## IL-17A (ligand)
[2]
  percentage of GFP^+ cells (24 h stimulation, 100 ng/ml): 60%

## IL-17A: IL-17 family cytokine; ligand of the IL-17RA/IL-17RC heterodimer
[3]
  dose-dependent activation of the GFP reporter: activate the GFP reporter system in a dose-dependent manner
[3]; listed as IL-17a
  dose-dependent activation of the GFP reporter: activated in a dose-dependent manner
[4]
  increase of percentage of GFP+ cells / GFP expression (reporter response): responds highly selectively
[4]; increased from 1%
  percentage of GFP+ cells: 60%

## IL-17E (ligand)
[5]
  percentage of GFP^+ cells (24 h stimulation, 100 ng/ml): 80%

## IL-17F: IL-17 family cytokine
[3]
  dose-dependent activation of the GFP reporter: activate the GFP reporter system in a dose-dependent manner
[3]; listed as IL-17f
  dose-dependent activation of the GFP reporter: to a lesser degree

## TNFa
[4]
  increase of percentage of GFP+ cells / GFP expression (reporter response): failed to increase GFP expression
[6]
  increase of percentage of GFP+ cells / GFP expression (reporter response): failed to increase GFP expression
[7]
  dose dependent activation of reporter: dose dependent activation

B1: IFN-γ: dimerized soluble cytokine (interferon) that activates interferon gamma receptors (protein, listed as Homo sapiens)
chain: MKYTSYILAFQLCIVLGSLGCYCQDPYVKEAENLKKYFNAGHSDVADNGTLFLGILKNWKEESDRKIMQSQIVSFYFKLFKNFKDDQSIQKSVETIKEDMNVKFFNSNKKKRDDFEKLTNYSVTDLNVQRKAIHELIQVMAELSPAAKTGKRKRSQMLFRGRRASQ
[8]
  dose dependent activation of reporter: dose dependent activation

B2: IL-17E: IL-17 family cytokine; the natural ligand of IL-17RA/RB (protein, UniProt Q9H293 33-177, looked up)
Interleukin-25: YSHWPSCCPSKGQDTSEELLRWSTVPVPPLEPARPNRHPESCRASEDGPLNSRAISPWRYELDRDLNRLPQDLYHARCLCPHCVSLQTGSHMDPRGNSELLYHNQTVFYRRPCHGEKGTHKGYCLERRLYRVSLACVCVRPRVMG
[6]
  increase of percentage of GFP+ cells / GFP expression (reporter response): responds highly
[6]; increased from 1%
  percentage of GFP+ cells: 80%

B3: IL-17C: IL-17 family cytokine (protein, UniProt Q9P0M4 19-197, looked up)
Interleukin-17C: HHDPSLRGHPHSHGTPHCYSAEELPLGQAPPHLLARGAKWGQALPVALVSSLEAASHRGRHERPSATTQCPVLRPEEVLEADTHQRSISPWRYRVDTDEDRYPQKLAFAECLCRGCIDARTGRETAALNSVRLLQSLLVLRRRPCSRDGSGLPTPGAFAFHTEFIHVPVGCTCVLPRSV
[3]
  dose-dependent activation of the GFP reporter: not
